According to patent publication US20220089695A1 (NEW YORK UNIVERSITY, published 2022):

B1: Liver and lymph node sinusoidal endothelial cell C-type lectin expressed on cells (receptor)
chain: MDTTRYSKWGGSSEEVPGGPWGRWVHWSRRPLFLALAVLVTTVLWAVILSILLSKASTERAALLDGHDLLRTNASKQTAALGALKEEVGDCHSCCSGTQAQLQTTRAELGEAQAKLMEQESALRELRERVTQGLAEAGRGREDVRTELFRALEAVRLQNNSCEPCPTSWLSFEGSCYFFSVPKTTWAAAQDHCADASAHLVIVGGLDEQGFLTRNTRGRGYWLGLRAVRHLGKVQGYQWVDGVSLSFSHWNQGEPNDAWGRENCVMMLHTGLWNDAPCDSEKDGWICEKRHNC
notes: whole, on cells; also called LSECtin; CLEC4G
B2: C-type lectin domain family 10 member A expressed on cells (receptor)
chain: MTRTYENFQYLENKVKVQGFKNGPLPLQSLLQRLCSGPCHLLLSLGLGLLLLVIICVVGFQNSKFQRDLVTLRTDFSNFTSNTVAEIQALTSQGSSLEETIASLKAEVEGFKQERQAGVSELQEHTTQKAHLGHCPHCPSVCVPVHSEMLLRVQQLVQDLKKLTCQVATLNNNASTEGTCCPVNWVEHQDSCYWFSHSGMSWAEAEKYCQLKNAHLVVINSREEQNFVQKYLGSAYTWMGLSDPEGAWKWVDGTDYATGFQNWKPGQPDDWQGHGLGGGEDCAHFHPDGRWNDDVCQRPYHWVCEAGLGQTSQESH
notes: whole, on cells; also called CLEC10A
B3: Asialoglycoprotein Receptor 1 expressed on cells (receptor)
chain: MTKEYQDLQHLDNEESDHHQLRKGPPPPQPLLQRLCSGPRLLLLSLGLSLLLLVVVCVIGSQNSQLQEELRGLRETFSNFTASTEAQVKGLSTQGGNVGRKMKSLESQLEKQQKDLSEDHSSLLLHVKQFVSDLRSLSCQMAALQGNGSERTCCPVNWVEHERSCYWFSRSGKAWADADNYCRLEDAHLVVVTSWEEQKFVQHHIGPVNTWMGLHDQNGPWKWVDGTDYETGFKNWRPEQPDDWYGHGLGGGEDCAHFTDDGRWNDDVCQRPYRWVCETELDKASQEPPLL
notes: whole, on cells; also called ASGR1
B4: Liver/lymph node-specific intercellular adhesion molecule-3-grabbing integrin expressed on cells (receptor)
chain: MSDSKEPRVQQLGLLEEDPTTSGIRLFPRDFQFQQIHGHKSSTGCLGHGALVLQLLSFMLLAGVLVAILVQVSKVPSSLSQEQSEQDAIYQNLTQLKAAVGELSEKSKLQEIYQELTQLKAAVGELPEKSKLQEIYQELTRLKAAVGELPEKSKLQEIYQELTRLKAAVGELPEKSKLQEIYQELTRLKAAVGELPEKSKLQEIYQELTELKAAVGELPEKSKLQEIYQELTQLKAAVGELPDQSKQQQIYQELTDLKTAFERLCRHCPKDWTFFQGNCYFMSNSQRNWHDSVTACQEVRAQLVVIKTAEEQNFLQLQTSRSNRFSWMGLSDLNQEGTWQWVDGSPLSPSFQRYWNSGEPNNSGNEDCAEFSGSGWNDNRCDVDNYWICKKPAACFRDE
notes: whole, on cells; also called L-SIGN; CLEC4M
B5: Dendritic cell-specific intercellular adhesion molecule-3-grabbing nonintegrin expressed on cells (receptor)
chain: MSDSKEPRLQQLGLLEEEQLRGLGFRQTRGYKSLAGCLGHGPLVLQLLSFTLLAGLLVQVSKVPSSISQEQSRQDAIYQNLTQLKAAVGELSEKSKLQEIYQELTQLKAAVGELPEKSKLQEIYQELTRLKAAVGELPEKSKLQEIYQELTWLKAAVGELPEKSKMQEIYQELTRLKAAVGELPEKSKQQEIYQELTRLKAAVGELPEKSKQQEIYQELTRLKAAVGELPEKSKQQEIYQELTQLKAAVERLCHPCPWEWTFFQGNCYFMSNSQRNWHDSITACKEVGAQLVVIKSAEEQNFLQLQSSRSNRFTWMGLSDLNQEGTWQWVDGSPLLPSFKQYWNRGEPNNVGEEDCAEFSGNGWNDDKCNLAKFWICKKSAASCSRDEEQFLSPAPATPNPPPA
notes: whole, on cells; also called DC-SIGN; CD209

The binders below were run against T1, S1-69/70 DelFc (SARS-CoV-2, UniProt P0DTC2 14-685) (assay: Fc-tagged protein on receptor-expressing HEK293T cells (FIG. 13A)).
T1 construct: domain: S1

| Binder | binding result |
| --- | --- |
| B1 | binds |
| B2 | binds |
| B3 | binds |
| B4 | binds |
| B5 | binds |
